Sequences and labels used below:
T1: SmMYB36 (Salvia miltiorrhiza, UniProt A0A059PRJ2 1-160)
T1 sequence: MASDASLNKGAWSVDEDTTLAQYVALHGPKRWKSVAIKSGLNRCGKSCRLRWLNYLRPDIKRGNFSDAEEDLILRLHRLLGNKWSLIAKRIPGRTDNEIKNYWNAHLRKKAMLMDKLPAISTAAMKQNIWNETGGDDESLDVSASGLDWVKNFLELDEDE

B1: HPPR-MRE-1 (dsDNA)
DNA 1: TTTTGTGGGACAAACCTAAAAAGAAACTGAA
DNA 2: TTCAGTTTCTTTTTAGGTTTGTCCCACAAAA
B2: HPPR-MRE-2 (dsDNA)
DNA 1: AATGATTGATTTAACCTAATCATTGTGAAACC
DNA 2: GGTTTCACAATGATTAGGTTAAATCAATCATT
B3: MBS1 core (dsDNA)
DNA 1: CAACTG
DNA 2: CAGTTG
B4: 4CL2-MRE (dsDNA)
DNA 1: TTTGTAGAGTTGAACCTAAAGATGATGGGTG
DNA 2: CACCCATCATCTTTAGGTTCAACTCTACAAA
B5: MCT-MBS2-2 (dsDNA)
DNA 1: AAAACAGGCATCCGGTCAGTAAGTCCGCAT
DNA 2: ATGCGGACTTACTGACCGGATGCCTGTTTT
B6: MBSI-2 core (dsDNA)
DNA 1: AAAAAACGGTTA
DNA 2: TAACCGTTTTTT
B7: MBSI-1 core (dsDNA)
DNA 1: AAAAAACCGTTA
DNA 2: TAACGGTTTTTT
B8: MCT-MBS3-1 (dsDNA)
DNA 1: TATCATCTTCGGTAACTGATACTCAAGGAT
DNA 2: ATCCTTGAGTATCAGTTACCGAAGATGATA
B9: C4H1-MBS3 (dsDNA)
DNA 1: GTTTAAAAGACATAACTGAGTTATCGAACA
DNA 2: TGTTCGATAACTCAGTTATGTCTTTTAAAC
B10: DXR-MRE (dsDNA)
DNA 1: CCCCTTTTACAAAACCTAATTTCCCCCCAT
DNA 2: ATGGGGGGAAATTAGGTTTTGTAAAAGGGG
B11: MCT-MBS2-1 (dsDNA)
DNA 1: AGGAAACCCTCACGGTCACCTTAACATTCA
DNA 2: TGAATGTTAAGGTGACCGTGAGGGTTTCCT
B12: MBSII core (dsDNA)
DNA 1: AAAAGTTAGTTA
DNA 2: TAACTAACTTTT
B13: GGPPS1-MRE (dsDNA)
DNA 1: TTTTTCGATAGTAACCTAATTTTCTGTAGTG
DNA 2: CACTACAGAAAATTAGGTTACTATCGAAAAA
B14: IPPI-MBS1 (dsDNA)
DNA 1: CCGCCGCCGCCACAACTGTAATGGTGCTTT
DNA 2: AAAGCACCATTACAGTTGTGGCGGCGGCGG
B15: GGPPS1-MBS2 (dsDNA)
DNA 1: TTAAAATCGTTACGGTCATACCACGGAAAC
DNA 2: GTTTCCGTGGTATGACCGTAACGATTTTAA
B16: MCT-MBS3-2 (dsDNA)
DNA 1: AACTAGATGAATTAACTGGTAGCAATTACC
DNA 2: GGTAATTGCTACCAGTTAATTCATCTAGTT
B17: HMGS1-MBS3 (dsDNA)
DNA 1: GTGTGTGCTGTTTAACTGATCCGCTATTTC
DNA 2: GAAATAGCGGATCAGTTAAACAGCACACAC
B18: C4H1-MBS1 (dsDNA)
DNA 1: TCTTTAAAACTCCAACTGATATGATGTTCG
DNA 2: CGAACATCATATCAGTTGGAGTTTTAAAGA

The target of this series is T1, SmMYB36. Put plainly: EMSA; Invitrogen EMSA kit, probe:protein mass ratio 1:15, 10 µL; protein eluted in 50 mM NaH2PO4, 300 mM NaCl, 250 mM imidazole pH 8.0; binding buffer and temperature not given. The conditions noted are these: protein: recombinant; tags: His (pET32a fusion); blunt. (In general: A gel shift assay detects complexes by their altered migration in electrophoresis.)
B1: the binding result is “binds”. As for B2, the binding result was “binds”. As for B3, the binding result is given as “binds”. Then B4, with “binds”; and B5, with “binds”. B6: the binding result is “binds”. With B7 the entry was “binds”; with B8, “binds”.

On to B9, for which the binding result is listed as “binds”. On to B10, for which the binding result is “binds”.

For the molecule B11, the binding result was “binds”. As for B12, the binding result is on record as “binds”. With B13, the binding result is “binds”. As for B14, the binding result was “binds”.

With B15, the binding result is recorded as “binds”. On to B16, for which the binding result was “binds”. Regarding B17, the binding result is “binds”. B18: the binding result is reported as “binds”.

These data come from publication PMC5506036, “SmMYB36, a Novel R2R3-MYB Transcription Factor, Enhances Tanshinone Accumulation and Decreases Phenolic Acid Content in Salvia miltiorrhiza Hairy Roots”.
